In PMC4973471 (Nature structural & molecular biology, 2016):

B1: 2-site HSE (dsDNA)
DNA 1: GGTTCTAGAACC
DNA 2: GGTTCTAGAACC
B2: human HSF2 DNA-binding domain (amino acids 8–115) (domain or fragment, UniProt Q03933 8-115, looked up)
chain: PAFLSKLWTLVEETHTNEFITWSQNGQSFLVLDEQRFAKEILPKYFKHNNMASFVRQLNMYGFRKVVHIDSGIVKQERDGPVEFQHPYFKQGQDDLLENIKRKVSSSK

Columns and labels:
HSF2 DBD = HSF2 DBD (Homo sapiens, UniProt Q03933 8-115); assay: X-ray crystallography
crystal structure = target: the molecule itself; assay: crystal structure

| Binder | binding result (HSF2 DBD) | binding result (crystal structure) |
| --- | --- | --- |
| B1 | binds | – |
| B2 | – | binds |
